*1 amine or outer side, *2 acyl side, *3 side chain or, on linkers, in order; H or OH if unused. [ ]: non-standard residue; d: D form. Ser(Me) = O-methylserine, COC[C@H](N[*:1])C(=O)[*:2]; Arg(Me) = CNC(=N)NCCC[C@H](N)C(=O)O; Hyp = O=C(O)[C@@H]1C[C@@H](O)CN1; 2Pal = N[C@@H](Cc1ccccn1)C(=O)O; 3Pal = N[C@@H](Cc1cccnc1)C(=O)O; 4Pal = N[C@@H](Cc1ccncc1)C(=O)O

For 26 molecules, Specific Activity (EC50 of test compound based on EC50 of Metastin (45-54); intracellular calcium, FLIPR) (ratio to EC50 of Metastin (45-54)) results are on record in patent US20110059888A1.

For the assay, the target named is human OT7T175 (metastin receptor) (human) (UniProt Q969F8). In words: cell-based or functional assay.
Sequence of UniProt Q969F8 (Q969F8 whole entry L364H): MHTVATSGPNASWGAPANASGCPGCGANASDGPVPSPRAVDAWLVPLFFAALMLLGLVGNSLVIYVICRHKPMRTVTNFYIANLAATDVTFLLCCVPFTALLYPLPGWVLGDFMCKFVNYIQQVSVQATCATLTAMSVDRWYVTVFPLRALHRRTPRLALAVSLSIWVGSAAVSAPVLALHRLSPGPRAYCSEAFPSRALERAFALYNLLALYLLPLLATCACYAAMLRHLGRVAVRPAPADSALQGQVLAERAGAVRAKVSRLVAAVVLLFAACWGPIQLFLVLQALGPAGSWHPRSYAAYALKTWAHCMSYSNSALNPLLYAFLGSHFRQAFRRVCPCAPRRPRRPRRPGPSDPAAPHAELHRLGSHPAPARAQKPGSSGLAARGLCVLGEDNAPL

Take “des(1)-Ac-[D-Tyr2,Hyp3,Thr5,Gly7Ψ(CH2S)Leu8,Arg(Me)9,Trp10]MS10 (peptide)”: the Specific Activity (EC50 of test compound based on EC50 of Metastin (45-54); intracellular calcium, FLIPR) (ratio to EC50 of Metastin (45-54)) worked out at 1.2.

On to “des(1)-Ac-[D-Tyr2,Hyp3,Thr5,Cha6,Leu(Me)8,Arg(Me)9,Trp10]MS10 (peptide)”, for which the Specific Activity (EC50 of test compound based on EC50 of Metastin (45-54); intracellular calcium, FLIPR) (ratio to EC50 of Metastin (45-54)) came to 1.4.

For “des(1)-Ac-[D-Tyr2,Hyp3,Thr5,Phe6Ψ(CH2CH2)AzaGly7,Arg(Me)9,Trp10]MS10 (peptide)”, the Specific Activity (EC50 of test compound based on EC50 of Metastin (45-54); intracellular calcium, FLIPR) (ratio to EC50 of Metastin (45-54)) was 0.6.

Take “des(1)-Ac-[D-Tyr2,Hyp3,Thr5,Cha6,Gly7Ψ(CH2S)Leu8,Arg(Me)9,Trp10]MS10 (peptide)”: the Specific Activity (EC50 of test compound based on EC50 of Metastin (45-54); intracellular calcium, FLIPR) (ratio to EC50 of Metastin (45-54)) worked out at 1.7.

Consider “des(1)-Ac-[D-Tyr2,Hyp3,Thr5,Ser(Me)8,Arg(Me)9,Trp10]MS10 (peptide)”, for which the Specific Activity (EC50 of test compound based on EC50 of Metastin (45-54); intracellular calcium, FLIPR) (ratio to EC50 of Metastin (45-54)) was 0.8.

On to “des(1)-Ac-[D-Tyr2,Hyp3,Thr5,Cha6,Ser(Me)8,Arg(Me)9,Trp10]MS10 (peptide)”, for which the Specific Activity (EC50 of test compound based on EC50 of Metastin (45-54); intracellular calcium, FLIPR) (ratio to EC50 of Metastin (45-54)) came out at 0.5.

Consider “des(1)-Ac-[D-Tyr2,Hyp3,Alb4,Thr5,Cha6,Gly7Ψ((E)CH═CH)Leu8,Trp10]MS10 (peptide)”, for which the Specific Activity (EC50 of test compound based on EC50 of Metastin (45-54); intracellular calcium, FLIPR) (ratio to EC50 of Metastin (45-54)) came out at 0.5.

“des(1)-Ac-[D-Tyr2,Glu3,Thr5,Cha6,Ser(Me)8,Arg(Me)9,Trp10]MS10 (peptide)”: the Specific Activity (EC50 of test compound based on EC50 of Metastin (45-54); intracellular calcium, FLIPR) (ratio to EC50 of Metastin (45-54)) amounted to 0.5.

“des(1)-Ac-[D-Tyr2,Hyp3,Thr5,Cha6,Ala7,Arg(Me)9,Trp10]MS10 (peptide)”: the Specific Activity (EC50 of test compound based on EC50 of Metastin (45-54); intracellular calcium, FLIPR) (ratio to EC50 of Metastin (45-54)) was determined as 0.5.

For “des(1)-Ac-[D-Tyr2,Hyp3,Thr5,Cha6,Gly7Ψ((E)CH═CH)Leu8,Trp10]MS10 (peptide)”, the Specific Activity (EC50 of test compound based on EC50 of Metastin (45-54); intracellular calcium, FLIPR) (ratio to EC50 of Metastin (45-54)) worked out at 0.6.

On to “des(1)-Ac-[D-Tyr2,Glu3,Thr5,Cha6,Nva8,Arg(Me)9,Trp10]MS10 (peptide)”, for which the Specific Activity (EC50 of test compound based on EC50 of Metastin (45-54); intracellular calcium, FLIPR) (ratio to EC50 of Metastin (45-54)) was found to be 0.4.

For “des(1)-Ac-[D-Tyr2,Pro(4F)3,Thr5,Cha6,Ala(cPr)8,Arg(Me)9,Trp10]MS10 (peptide)”, the Specific Activity (EC50 of test compound based on EC50 of Metastin (45-54); intracellular calcium, FLIPR) (ratio to EC50 of Metastin (45-54)) was found to be 0.4.

“des(1)-Ac-[D-Tyr2,Hyp3,Thr5,Gly7Ψ((E)CH═CH)Leu8,Trp10]MS10 (peptide)”: the Specific Activity (EC50 of test compound based on EC50 of Metastin (45-54); intracellular calcium, FLIPR) (ratio to EC50 of Metastin (45-54)) was 0.4.

“des(1)-Ac-[D-Tyr2,Hyp3,Thr5,Cha6,Nva8,Arg(Me)9,Trp10]MS10 (peptide)”: the Specific Activity (EC50 of test compound based on EC50 of Metastin (45-54); intracellular calcium, FLIPR) (ratio to EC50 of Metastin (45-54)) came to 0.5.

In the case of “des(1)-Ac-[D-Tyr2,Hyp3,Thr5,Nva8,Arg(Me)9,Trp10]MS10 (peptide)”, the Specific Activity (EC50 of test compound based on EC50 of Metastin (45-54); intracellular calcium, FLIPR) (ratio to EC50 of Metastin (45-54)) was 0.7.

As for “des(1)-Ac-[D-Tyr2,Hyp3,Thr5,Cha6,Arg(Me)9,Trp10]MS10 (peptide)”, the Specific Activity (EC50 of test compound based on EC50 of Metastin (45-54); intracellular calcium, FLIPR) (ratio to EC50 of Metastin (45-54)) turned out to be 0.3.

As to “des(1)-Ac-[D-Tyr2,Hyp3,Thr5,Nal(2)6,Arg(Me)9,Trp10]MS10 (peptide)”, the Specific Activity (EC50 of test compound based on EC50 of Metastin (45-54); intracellular calcium, FLIPR) (ratio to EC50 of Metastin (45-54)) came out at 1.

On to “des(1)-Ac-[D-Tyr2,Hyp3,Thr5,Cha6,Nle8,Arg(Me)9,Trp10]MS10 (peptide)”, for which the Specific Activity (EC50 of test compound based on EC50 of Metastin (45-54); intracellular calcium, FLIPR) (ratio to EC50 of Metastin (45-54)) amounted to 0.6.

In the case of “des(1)-Ac-[D-Tyr2,Hyp3,Thr5,Aib7,Arg(Me)9,Trp10]MS10 (peptide)”, the Specific Activity (EC50 of test compound based on EC50 of Metastin (45-54); intracellular calcium, FLIPR) (ratio to EC50 of Metastin (45-54)) was 1.5.

Take Ac-[dY][Hyp]NTFGL[Arg(Me)]W-NH2 (also: Phe5-Gly6 amide replaced by CH2CH2) [des(1)-Ac-[D-Tyr2,Hyp3,Thr5,Phe6Ψ(CH2CH2)Gly7,Arg(Me)9,Trp10]MS10]: the Specific Activity (EC50 of test compound based on EC50 of Metastin (45-54); intracellular calcium, FLIPR) (ratio to EC50 of Metastin (45-54)) is 1.3.

B1: des(1)-Ac-[D-Tyr2,Hyp3,Thr5,Pya(3)6,Arg(Me)9,Trp10]MS10 (peptide)
peptide: Ac-[dY][Hyp]NT[3Pal]GL[Arg(Me)]W-NH2
SMILES: CNC(=N)NCCC[C@H](NC(=O)[C@H](CC(C)C)NC(=O)CNC(=O)[C@H](Cc1cccnc1)NC(=O)[C@@H](NC(=O)[C@H](CC(N)=O)NC(=O)[C@@H]1C[C@@H](O)CN1C(=O)[C@@H](Cc1ccc(O)cc1)NC(C)=O)[C@@H](C)O)C(=O)N[C@@H](Cc1c[nH]c2ccccc12)C(N)=O
Take B1: the Specific Activity (EC50 of test compound based on EC50 of Metastin (45-54); intracellular calcium, FLIPR) (ratio to EC50 of Metastin (45-54)) is 0.9.

Turning to Ac-[dY][Hyp]NTFGL[Arg(Me)]W-NH2 (also: Phe5-Gly6 amide bond replaced by CH2O) [des(1)-Ac-[D-Tyr2,Hyp3,Thr5,Phe6Ψ(CH2O)Gly7,Arg(Me)9,Trp10]MS10], the Specific Activity (EC50 of test compound based on EC50 of Metastin (45-54); intracellular calcium, FLIPR) (ratio to EC50 of Metastin (45-54)) was 0.5.

B2: des(1)-Ac-[D-Tyr2,Hyp3,Thr5,Val7,Arg(Me)9,Trp10]MS10 (peptide)
peptide: Ac-[dY][Hyp]NTFVL[Arg(Me)]W-NH2
SMILES: CNC(=N)NCCC[C@H](NC(=O)[C@H](CC(C)C)NC(=O)[C@@H](NC(=O)[C@H](Cc1ccccc1)NC(=O)[C@@H](NC(=O)[C@H](CC(N)=O)NC(=O)[C@@H]1C[C@@H](O)CN1C(=O)[C@@H](Cc1ccc(O)cc1)NC(C)=O)[C@@H](C)O)C(C)C)C(=O)N[C@@H](Cc1c[nH]c2ccccc12)C(N)=O
As to B2, the Specific Activity (EC50 of test compound based on EC50 of Metastin (45-54); intracellular calcium, FLIPR) (ratio to EC50 of Metastin (45-54)) was 1.7.

B3: des(1)-Ac-[D-Tyr2,Hyp3,Thr5,Ser(Me)7,Arg(Me)9,Trp10]MS10 (peptide)
peptide: Ac-[dY][Hyp]NTF[Ser(Me)]L[Arg(Me)]W-NH2
SMILES: CNC(=N)NCCC[C@H](NC(=O)[C@H](CC(C)C)NC(=O)[C@H](COC)NC(=O)[C@H](Cc1ccccc1)NC(=O)[C@@H](NC(=O)[C@H](CC(N)=O)NC(=O)[C@@H]1C[C@@H](O)CN1C(=O)[C@@H](Cc1ccc(O)cc1)NC(C)=O)[C@@H](C)O)C(=O)N[C@@H](Cc1c[nH]c2ccccc12)C(N)=O
For the molecule B3, the Specific Activity (EC50 of test compound based on EC50 of Metastin (45-54); intracellular calcium, FLIPR) (ratio to EC50 of Metastin (45-54)) is 1.2.

B4: des(1)-Ac-[D-Tyr2,Hyp3,Thr5,Pya(2)6,Arg(Me)9,Trp10]MS10 (peptide)
peptide: Ac-[dY][Hyp]NT[2Pal]GL[Arg(Me)]W-NH2
SMILES: CNC(=N)NCCC[C@H](NC(=O)[C@H](CC(C)C)NC(=O)CNC(=O)[C@H](Cc1ccccn1)NC(=O)[C@@H](NC(=O)[C@H](CC(N)=O)NC(=O)[C@@H]1C[C@@H](O)CN1C(=O)[C@@H](Cc1ccc(O)cc1)NC(C)=O)[C@@H](C)O)C(=O)N[C@@H](Cc1c[nH]c2ccccc12)C(N)=O
As to B4, the Specific Activity (EC50 of test compound based on EC50 of Metastin (45-54); intracellular calcium, FLIPR) (ratio to EC50 of Metastin (45-54)) was found to be 1.2.

B5: des(1)-Ac-[D-Tyr2,Hyp3,Thr5,Pya(4)6,Arg(Me)9,Trp10]MS10 (peptide)
peptide: Ac-[dY][Hyp]NT[4Pal]GL[Arg(Me)]W-NH2
SMILES: CNC(=N)NCCC[C@H](NC(=O)[C@H](CC(C)C)NC(=O)CNC(=O)[C@H](Cc1ccncc1)NC(=O)[C@@H](NC(=O)[C@H](CC(N)=O)NC(=O)[C@@H]1C[C@@H](O)CN1C(=O)[C@@H](Cc1ccc(O)cc1)NC(C)=O)[C@@H](C)O)C(=O)N[C@@H](Cc1c[nH]c2ccccc12)C(N)=O
Consider B5, for which the Specific Activity (EC50 of test compound based on EC50 of Metastin (45-54); intracellular calcium, FLIPR) (ratio to EC50 of Metastin (45-54)) came to 0.9.
